The values that follow come from patent US20170342144A1 (Sanofi, published 2017).

The chains are these.
B1: D56R (antibody, V domains shown)
VH: QVQLVQSGAEVKKPGSSVKVSCKASGYTFSSNVISWVRQAPGQGLEWMGGVIPIVRIANYAQRFKGRVTITADESTSTTYMELSSLRSEDTAVYYCASTLGLVLDAMDYWGQGTLVTVSS
VL: ETVLTQSPGTLSLSPGERATLSCRASQSLGSSYLAWYQQKPGQAPRLLIYGASSRAPGIPDRFSGSGSGTDFTLTISRLEPEDFAVYYCQQYADSPITFGQGTRLEIK
notes: GC1008 IgG4 variant
B2: E74L (antibody, V domains shown)
VH: B1 VH with R56D, E74L
VL: B1 VL
notes: GC1008 IgG4 variant
B3: E74R (antibody, V domains shown)
VH: B1 VH with R56D, E74R
VL: B1 VL
notes: GC1008 IgG4 variant
B4: Y27Q (antibody, V domains shown)
VH: B1 VH with Y27Q, R56D
VL: B1 VL
notes: GC1008 IgG4 variant
B5: Y27I (antibody, V domains shown)
VH: B1 VH with Y27I, R56D
VL: B1 VL
notes: GC1008 IgG4 variant
B6: Y27S (antibody, V domains shown)
VH: B1 VH with Y27S, R56D
VL: B1 VL
notes: GC1008 IgG4 variant
B7: Y27F (antibody, V domains shown)
VH: B1 VH with Y27F, R56D
VL: B1 VL
notes: GC1008 IgG4 variant
B8: Y27V (antibody, V domains shown)
VH: B1 VH with Y27V, R56D
VL: B1 VL
notes: GC1008 IgG4 variant
B9: Y27R (antibody, V domains shown)
VH: B1 VH with Y27R, R56D
VL: B1 VL
notes: GC1008 IgG4 variant
B10: Y27K (antibody, V domains shown)
VH: B1 VH with Y27K, R56D
VL: B1 VL
notes: GC1008 IgG4 variant
B11: Y27E (antibody, V domains shown)
VH: B1 VH with Y27E, R56D
VL: B1 VL
notes: GC1008 IgG4 variant
B12: Y27T (antibody, V domains shown)
VH: B1 VH with Y27T, R56D
VL: B1 VL
notes: GC1008 IgG4 variant
B13: Y27L (antibody, V domains shown)
VH: B1 VH with Y27L, R56D
VL: B1 VL
notes: GC1008 IgG4 variant
B14: Y27P (antibody, V domains shown)
VH: B1 VH with Y27P, R56D
VL: B1 VL
notes: GC1008 IgG4 variant
B15: Y27W (antibody, V domains shown)
VH: B1 VH with Y27W, R56D
VL: B1 VL
notes: GC1008 IgG4 variant
B16: Y27G (antibody, V domains shown)
VH: B1 VH with Y27G, R56D
VL: B1 VL
notes: GC1008 IgG4 variant
B17: Y27N (antibody, V domains shown)
VH: B1 VH with Y27N, R56D
VL: B1 VL
notes: GC1008 IgG4 variant
B18: Y27D (antibody, V domains shown)
VH: B1 VH with Y27D, R56D
VL: B1 VL
notes: GC1008 IgG4 variant
B19: Y27M (antibody, V domains shown)
VH: B1 VH with Y27M, R56D
VL: B1 VL
notes: GC1008 IgG4 variant
B20: Y27A (antibody, V domains shown)
VH: B1 VH with Y27A, R56D
VL: B1 VL
notes: GC1008 IgG4 variant

Changes are numbered by the printed parent chain.

T1 sequence (P01137 279-390 limits assumed): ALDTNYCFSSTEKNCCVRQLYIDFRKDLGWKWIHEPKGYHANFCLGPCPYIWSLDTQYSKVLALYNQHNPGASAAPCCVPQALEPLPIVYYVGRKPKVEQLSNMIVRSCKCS

One test concerns the target T1, human TGFβ1 (human, UniProt P01137 279-390).
T1 construct: also called TGFβ1 homodimer
The test is described as follows: Biacore, 3.33-90 nM, 1:1 global fit, vs wt GC1008. As for the experimental part: (§1) In FIG. 6C, seventeen mutants were selected and scaled up to produce sufficient amount of purified protein for KD (equilibrium constant=kd/ka) analysis by Biacore. Multiple concentrations (90, 30, 10 and 3.33 nM) were used in duplicate on the 150 RU level TGFβ1, 2, and 3 immobilized surfaces. KD was calculated using global curve fitting analysis for a 1-to-1 Langmuir binding model. The experimental data from all four concentrations were used for calculation except for I54N and I54R mutants, where only the top 2 concentrations were used. The fold changes in KD were compared to the fold changes in kd (off rate) presented in FIG. 6B, and a heat map was generated for visualization. Similar fold changes were observed from the two data sets, confirming the validity of using kd as a parameter for screening of 155 single mutants as shown in FIG. 6B.
Regarding B1, the “KD mutant/KD wt” value worked out at 1.
Still for that read-out and setting: then B2, with 0.9.
Regarding B3, the “KD mutant/KD wt” value amounted to 2.1.

In a further test the target is T2, human TGFβ2 (human, UniProt P61812 303-414).
T2 construct: also called TGFβ2 homodimer
T2 sequence: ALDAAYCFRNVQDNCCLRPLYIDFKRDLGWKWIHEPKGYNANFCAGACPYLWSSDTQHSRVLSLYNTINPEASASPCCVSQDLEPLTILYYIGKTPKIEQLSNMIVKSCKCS
In words: Biacore, 3.33-90 nM, 1:1 global fit, vs wt GC1008. As for the experimental part:
as §1
B1: the “KD mutant/KD wt” value was 0.6.
For B2, the “KD mutant/KD wt” value worked out at 0.7.
Turning to B3, the “KD mutant/KD wt” value came to 1.3.

The target in the next test is T3, human TGFβ3 (human, UniProt P10600 301-412).
T3 sequence: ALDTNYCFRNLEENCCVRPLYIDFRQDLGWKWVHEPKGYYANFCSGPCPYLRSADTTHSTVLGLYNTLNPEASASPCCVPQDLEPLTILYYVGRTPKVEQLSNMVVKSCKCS
The test is described as follows: Biacore, 3.33-90 nM, 1:1 global fit, vs wt GC1008. As for the experimental part:
as §1
For orientation: In SPR one partner is held on a chip, and binding of the other changes the refractive index at the surface.
For the molecule B1, the “KD mutant/KD wt” value was determined as 0.6.
In the case of B2, the “KD mutant/KD wt” value was found to be 0.3.
As for B3, the “KD mutant/KD wt” value worked out at 0.8.

For a further test, the target named is T1, human TGFβ1. In words: Biacore off-rate vs wt GC1008, 50 nM. In short, it runs like this: (§2)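 Surface plasmon resonance on a Biacore 3000 measured how fast purified antibody variants dissociated from TGFβ isoforms immobilized at about 100 RU. Variants carried single heavy- or light-chain substitutions and were produced by transient Expi293F transfection with Protein A cleanup. Samples at 50 nM were tested in duplicate, and each variant kd was divided by the wild-type control kd to give fold change.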
In turn, B1 returned a kd var/kd wt of 1.
In the case of B4, the kd var/kd wt amounted to 1.5.
In the case of B5, the kd var/kd wt turned out to be 1.3.
B6 had a kd var/kd wt of 1.6.
For the molecule B7, the kd var/kd wt worked out at 1.3.
The same measure, in the same setting: then B8, with 1.7.
B9 returned a kd var/kd wt of 2.3.
Turning to B10, the kd var/kd wt came to 1.9.
The molecule B11 gave a kd var/kd wt of 1.2.
B12 had a kd var/kd wt of 1.4.
Same read-out and setting: then B2, with 0.8.
B13: the kd var/kd wt amounted to 1.4.
B14 gave a kd var/kd wt of 1.7.
With B15, the kd var/kd wt turned out to be 1.4.
B3 registered a kd var/kd wt of 2.
Regarding B16, the kd var/kd wt came out at 1.5.
Regarding B17, the kd var/kd wt is 1.3.
Still for that read-out and setting: then B18, with 1.2; and B19, with 1.3.
On the same count and under the same terms, then B20, with 1.6.

The target of a further test is T2, human TGFβ2. In words: Biacore off-rate vs wt GC1008, 50 nM. In short, it runs like this: as §2
Molecule B1 had a kd var/kd wt of 0.8.
With B4, the kd var/kd wt was 1.4.
With B5, the kd var/kd wt worked out at 1.3.
In the case of B6, the kd var/kd wt is 1.5.
B7: the kd var/kd wt turned out to be 1.2.
The molecule B8 returned a kd var/kd wt of 1.6.
B9 registered a kd var/kd wt of 1.5.
Consider B10, for which the kd var/kd wt came out at 1.4.
Consider B11, for which the kd var/kd wt stood at 1.4.
B12 yielded a kd var/kd wt of 1.4.
As to B2, the kd var/kd wt was 0.6.
The same measure, in the same setting: then B13, with 1.4.
Same read-out and setting: with B14 the figure was 1.4; with B15, 1.3.
On the same count and under the same terms, then B3, with 1; and B16, with 1.4.
The molecule B17 returned a kd var/kd wt of 1.3.
In the case of B18, the kd var/kd wt was found to be 1.3.
As for B19, the kd var/kd wt is 1.4.
B20 returned a kd var/kd wt of 1.4.

The target of the next test is T3, human TGFβ3. In words: Biacore off-rate vs wt GC1008, 50 nM. In short, it runs like this:
as §2
As for B1, the kd var/kd wt is 0.7.
In the case of B4, the kd var/kd wt turned out to be 1.4.
B5 returned a kd var/kd wt of 1.1.
With B6, the kd var/kd wt stood at 1.6.
Molecule B7 yielded a kd var/kd wt of 1.1.
B8 yielded a kd var/kd wt of 1.5.
As for B9, the kd var/kd wt amounted to 1.7.
Turning to B10, the kd var/kd wt is 1.3.
For the molecule B11, the kd var/kd wt is 1.1.
In turn, B12 yielded a kd var/kd wt of 1.5.
B2 showed a kd var/kd wt of 0.1.
Take B13: the kd var/kd wt is 1.1.
B14 yielded a kd var/kd wt of 1.4.
In the case of B15, the kd var/kd wt stood at 1.4.
B3: the kd var/kd wt was 0.7.
B16 showed a kd var/kd wt of 1.3.
Same read-out and setting: then B17, with 1.3.
As to B18, the kd var/kd wt turned out to be 1.2.
With B19, the kd var/kd wt came out at 1.3.
B20 displayed a kd var/kd wt of 1.5.

The target of the next test is T1, human TGFβ1. The test is described as follows: Biacore off-rate vs wt GC1008. An excerpt:
(§3) Plasmids encoding either the GC1008 heavy chain or light chain were used as a template in PCR-based mutagenesis reactions. Mutations to the encoding DNA were made to create 155 single amino acid substitutions of the encoded heavy chain amino acid sequence and one single amino acid substitution of the encoded light chain amino acid sequence. A QuikChange® Lightning Site-Directed Mutagenesis kit (Agilent Technologies, Santa Clara Calif.) was used according to the manufacturer's instructions to create DNA mutations using a set of forward and reverse primers, either designed for a specific amino acid or for all 20 amino acids with a degenerate codon (NNK). After sequencing confirmation, identified mutant DNA was paired with a wild-type light or heavy chain DNA for transfection into an Expi293F™ host cell suspension (Life Techonologies Corp., Grand Island, N.Y.). At 4 days post-transfection, conditioned media (1 mL) was harvested and purified using a 1 mL Protein A PhyTip® column (PhyNexus, Inc., San Jose, Calif.) and a PureSpeed™ 12-channel pipette (Rainin Instrument LLC, Oakland, Calif.). Purified variant antibody samples were analyzed in duplicate on a Biacore® 3000 (GE Healthcare) at 50 nM concentrations, using the 100 RU level TGFβ1, 2, and 3 immobilized surfaces. The off-rate (kd) of the variants was divided by the kd of the wild-type control to obtain the fold change in the kd. […] A heat map was generated to visualize the results. Variants that completely lost affinity for TGFβ were shown in red without numbers.
The molecule B1 had a kd mutant/kd wt of 1.
B2 showed a kd mutant/kd wt of 0.8.
In turn, B3 came in with a kd mutant/kd wt of 2.

The target of the next test is T2, human TGFβ2. The test is described as follows: Biacore off-rate vs wt GC1008.
From the text: as §3
Turning to B1, the kd mutant/kd wt was found to be 0.8.
Still for that read-out and setting: then B2, with 0.6.
On the same count and under the same terms, with B3 the figure was 1.

Another test addresses T3, human TGFβ3. In words: Biacore off-rate vs wt GC1008.
From the text: as §3
B1 yielded a kd mutant/kd wt of 0.7.
For B2, the kd mutant/kd wt turned out to be 0.1.
On the same count and under the same terms, then B3, with 0.7.
